The results in this text go back to patent US5534631, “Cellular factor ILF” (Board of Regents, The University of Texas System).

Data set [1] deals with T1, beta-galactosidase/ILF fusion (Homo sapiens, UniProt Q01167 SEQ:138-372). The data set is described as follows: competition; up to 50-fold excess. The settings on record: tags: N-terminal beta-galactosidase (lambda gt11).
The target of data set [2] is T2, GST/ILF fusion (Example 3) (Homo sapiens, UniProt Q01167 SEQ:1-540). The data set is described as follows: competition; no significant competition (also SEQ 27). The settings on record: tags: N-terminal GST (pGEX-3X).
In data set [3] the target is T2, GST/ILF fusion (Example 3). The data set is described as follows: competition; 1-, 5-, 20-fold excess against IL-2 NFAT probe. The settings on record: tags: N-terminal GST (pGEX-3X).
Data set [4] concerns the target T1, beta-galactosidase/ILF fusion. The experiment in a line: competition; up to 50-fold excess. The settings on record: tags: N-terminal beta-galactosidase (lambda gt11). The protocol:
Figure 2: FIG. 2. Gel retardation analysis with β-galactosidase/ILF fusion protein. An HIV-LTR fragment extending from −310 to −255 was used in gel retardations with either β-galactosidase or β-galactosidase/ILF purified with anti-β-galactosidase sepharose chromatography. Lane 1, probe alone; lane 2, probe with 3 μg of β-galactosidase extract; lane 3, probe with 3 μg of β-galactosidase/ILF extract. Competition analysis with either a 10-fold (lanes 4, 6, 8, 10) or 50-fold (lanes 5, 7, 9, 11) molar excess of unlabeled oligonucleotides corresponding to ILF (lanes 4 and 5), NFAT (lanes 6 and 7), AP1 (lanes 8 and 9) and CREB (lanes 10 and 11) binding motifs are shown. Figure 3B: FIG. 3. Amino acid sequence of the ILF coding region. (A) A 543 amino acid open reading frame encoded by a portion of the ILF cDNA. The shaded region indicates the region of homology of ILF with the fork head and HNF-3A DNA binding domains. The circled region (GAGSSG) SEQ ID NO:12 contains homology with a nucleotide binding sequence, the boxed region (RKRRPR) SEQ ID NO:13 contains a potential nuclear localization signal, the underlined sequence (RTPLGPLSS) SEQ ID NO:14 is homologous to a region required for ubiquitin-mediated degradation, and the dotted line (NGT) indicates a potential N-glycosylation site. (B) The 3.0 kb ILF cDNA and the position of the 1629 bp open reading frame. […]
The source holds these as a separate data set.

Data set [5] concerns the target T3, GST/ILF delta1 (amino-terminal deletion) (Homo sapiens, UniProt Q01167 SEQ:97-540). The data set is described as follows: EMSA; stated similar binding with proximal site. Particulars: tags: N-terminal GST (pGEX-3X).
Data set [6] has as its target T4, GST/ILF amino and carboxyl deletion, fork head retained (Homo sapiens, UniProt Q01167 SEQ:97-367). The data set is described as follows: EMSA; stated similar binding with proximal site. Particulars: tags: N-terminal GST (pGEX-3X).
Data set [7] deals with T5, GST/ILF amino, carboxyl and fork head deletion (Homo sapiens, UniProt Q01167 SEQ:97-186). The data set is described as follows: EMSA; stated similar with proximal site. Particulars: tags: N-terminal GST (pGEX-3X).
Data set [8] concerns the target T1, beta-galactosidase/ILF fusion. The data set is described as follows: competition; complete competition. The settings on record: tags: N-terminal beta-galactosidase (lambda gt11).
Data set [9] deals with T3, GST/ILF delta1 (amino-terminal deletion). The experiment in a line: EMSA; 4 ug protein. The settings on record: tags: N-terminal GST (pGEX-3X).
For data set [10], the target named is T4, GST/ILF amino and carboxyl deletion, …. The experiment in a line: EMSA; construct naming (delta2/delta3) differs between legend and methods. Particulars: tags: N-terminal GST (pGEX-3X).
Data set [11] has as its target T1, beta-galactosidase/ILF fusion. The data set is described as follows: competition; competes with HIV-LTR probe at 10- or 50-fold excess. The settings on record: tags: N-terminal beta-galactosidase (lambda gt11).
Data set [12] deals with T6, glutathione S-transferase (UniProt P08515 P08515:1-218). The data set is described as follows: EMSA; control. Particulars: tags: pGEX-3X (Pharmacia), chain copies: 2.
Data set [13] has as its target T5, GST/ILF amino, carboxyl and fork head …. The experiment in a line: EMSA; fork head deleted; construct naming differs between legend and methods. The settings on record: tags: N-terminal GST (pGEX-3X).
Data set [14] shares this target. The data set is described as follows: EMSA; fork head deleted. The settings on record: tags: N-terminal GST (pGEX-3X); label: 32P (when probe). An excerpt:
(§1) The constructs tested included a deletion of the amino terminus of ILF, a deletion of both the amino and carboxyl termini of ILF, or a deletion of the fork head domain in addition to the amino and carboxyl termini of ILF. Oligonucleotides corresponding to the distal ILF site in the HIV-LTR, the NFAT site in the IL-2 promoter, and an HIV-LTR fragment containing the distal ILF site were used in gel retardation analysis.
(§2) Figure 5C: FIG. 5. Gel retardation analysis of glutathione S-transferase/ILF fusions. Gel retardation analysis was performed with either ILF oligonucleotides (A), a fragment extending from −310 and −255 in the HIV-LTR (B), or NFAT oligonucleotides (C) and 4 μg of each of the glutathione S-transferase/ILF fusions. Lane 0, probe alone; lane 1, glutathione S-transferase (GST) protein alone; lane 2, a deletion of both the amino and carboxyl-termini in the GST/ILF fusion (ΔILF3); lane 3, a deletion of the ILF fork head DNA binding domain in addition to the amino and carboxyl termini in the GST/ILF fusion (ΔILF2); lane 4, an amino-terminal deletion of ILF in the GST/ILF fusion (ΔILF1).

Data set [15] deals with T2, GST/ILF fusion (Example 3). The experiment in a line: EMSA; self-competition observed. Particulars: tags: N-terminal GST (pGEX-3X); label: 32P (when probe). The protocol:
Gel retardation of ILF with the IL-2 NFAT motif. (A) Oligonucleotides corresponding to the NFAT motif in the IL-2 promoter extending from −285 to −254 were end labeled with γP^32ATP and used in gel retardation analysis alone (lane 0), with glutathione-S-transferase (lane 1), or with a glutathione-S-transferase/ILF fusion protein (lanes 2–16). The specificity of binding was tested by competition with unlabeled oligonucleotides corresponding to the NFAT motif in the IL-2 promoter (lanes 2–4), sequences spanning −283 to −256 and −223 to −195 in the HIV-LTR which comprised distal (lanes 5–7) and proximal (lanes 8–10) NFAT motifs respectively, the hepatocyte nuclear factor HNF-3A binding site extending from −107 to −92 in the transthyretin promoter (lanes 11–13), and an AP-1 binding sequence extending from −103 to −83 in the early region 3 promoter (lanes 14–16). The unlabeled oligonucleotides were present in either an equimolar (lanes 2, 5, 8, 11, and 14), 5-fold (lanes 3, 6, 9, 12, and 15) or 20-fold (lanes 4, 7, 10, 13 and 16) molar excess of the labeled oligonucleotides. (B) Sequences of NFAT motifs in the IL-2 promoter and the distal and proximal regions of the HIV-LTR are shown.
Two complexes I and II were noted; the major complex (I) was due to full-length GST/ILF while the lower complex (II) was due to GST/ILF degradation products. […]

Data set [16] concerns the target T6, glutathione S-transferase. The data set is described as follows: EMSA; control. Particulars: tags: pGEX-3X (Pharmacia), chain copies: 2, label: 32P (when probe).
From the text: as §1, §2

Data set [17] deals with T3, GST/ILF delta1 (amino-terminal deletion). The experiment in a line: EMSA; 4 ug protein. Particulars: tags: N-terminal GST (pGEX-3X); label: 32P (when probe).
From the text: as §1, §2

Data set [18] deals with T4, GST/ILF amino and carboxyl deletion, …. The data set is described as follows: EMSA; 4 ug protein. Particulars: tags: N-terminal GST (pGEX-3X); label: 32P (when probe).
From the text: as §1, §2

T5 sequence (Q01167 217-306, stated change not applied): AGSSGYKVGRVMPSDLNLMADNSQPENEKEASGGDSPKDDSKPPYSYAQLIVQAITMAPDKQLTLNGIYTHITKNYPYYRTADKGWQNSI
T4 sequence (Q01167 217-487, stated change not applied): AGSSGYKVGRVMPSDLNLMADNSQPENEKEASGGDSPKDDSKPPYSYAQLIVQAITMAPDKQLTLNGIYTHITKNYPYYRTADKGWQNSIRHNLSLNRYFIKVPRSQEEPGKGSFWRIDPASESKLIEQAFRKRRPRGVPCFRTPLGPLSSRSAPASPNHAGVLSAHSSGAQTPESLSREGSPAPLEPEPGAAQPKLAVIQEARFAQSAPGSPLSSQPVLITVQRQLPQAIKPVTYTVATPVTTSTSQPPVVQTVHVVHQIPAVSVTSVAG
T3 sequence (Q01167 217-660, stated change not applied): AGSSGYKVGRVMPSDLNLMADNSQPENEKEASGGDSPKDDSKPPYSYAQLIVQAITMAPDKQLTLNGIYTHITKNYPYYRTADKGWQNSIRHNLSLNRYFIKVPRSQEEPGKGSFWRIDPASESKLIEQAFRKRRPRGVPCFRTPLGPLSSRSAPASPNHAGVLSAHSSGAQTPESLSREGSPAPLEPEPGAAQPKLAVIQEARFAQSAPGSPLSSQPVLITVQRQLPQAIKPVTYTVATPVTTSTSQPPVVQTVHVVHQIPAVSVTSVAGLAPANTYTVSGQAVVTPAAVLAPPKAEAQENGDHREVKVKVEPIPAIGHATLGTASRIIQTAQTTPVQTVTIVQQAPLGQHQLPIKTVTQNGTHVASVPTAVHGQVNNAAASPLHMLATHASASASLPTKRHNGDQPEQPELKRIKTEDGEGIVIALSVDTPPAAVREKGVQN
T1 sequence (Q01167 258-492): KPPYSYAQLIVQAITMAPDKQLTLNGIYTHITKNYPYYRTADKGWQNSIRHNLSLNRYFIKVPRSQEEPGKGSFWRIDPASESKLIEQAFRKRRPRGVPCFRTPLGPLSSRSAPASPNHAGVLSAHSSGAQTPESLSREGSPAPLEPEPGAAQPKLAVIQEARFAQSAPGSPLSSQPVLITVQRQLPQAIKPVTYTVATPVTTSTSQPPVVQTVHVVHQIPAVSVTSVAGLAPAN
T2 sequence (Q01167 121-660): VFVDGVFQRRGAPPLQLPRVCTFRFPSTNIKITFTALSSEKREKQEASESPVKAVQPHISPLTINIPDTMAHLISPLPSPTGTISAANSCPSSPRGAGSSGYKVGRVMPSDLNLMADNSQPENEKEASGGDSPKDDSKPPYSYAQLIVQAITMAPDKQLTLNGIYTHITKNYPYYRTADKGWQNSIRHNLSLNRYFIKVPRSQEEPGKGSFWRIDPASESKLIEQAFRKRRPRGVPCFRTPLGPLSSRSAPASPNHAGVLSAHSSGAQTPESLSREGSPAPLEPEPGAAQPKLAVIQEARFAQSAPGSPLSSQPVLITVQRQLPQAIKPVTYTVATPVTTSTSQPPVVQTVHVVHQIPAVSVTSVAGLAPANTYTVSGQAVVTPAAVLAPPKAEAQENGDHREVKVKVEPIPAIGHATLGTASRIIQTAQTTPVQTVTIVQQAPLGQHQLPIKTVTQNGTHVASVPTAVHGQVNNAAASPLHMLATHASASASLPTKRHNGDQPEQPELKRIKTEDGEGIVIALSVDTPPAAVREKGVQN
T6 sequence (P08515 whole entry, one chain of several): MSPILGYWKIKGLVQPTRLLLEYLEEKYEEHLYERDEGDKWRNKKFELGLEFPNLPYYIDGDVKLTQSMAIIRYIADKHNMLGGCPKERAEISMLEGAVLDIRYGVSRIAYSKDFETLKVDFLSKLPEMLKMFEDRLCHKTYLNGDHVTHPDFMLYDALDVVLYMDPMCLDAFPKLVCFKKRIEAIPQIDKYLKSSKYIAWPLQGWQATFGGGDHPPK

B1: AP1 site, adenovirus E3 promoter (-103 to -83) (dsDNA)
DNA 1: GAAGTTCAGATGACTAACTCA
DNA 2: TGAGTTAGTCATCTGAACTTC
Regarding B1, the binding result in data set [1] and in data set [2] was “no binding” in each case.

B2: HIV-1 distal NFAT site (Example 3) (dsDNA)
DNA 1: GAAGAGGCCAATGAAGGAGAGAACAACA
DNA 2: TGTTGTTCTCTCCTTCATTGGCCTCTTC
B2: the binding result in data set [3] is recorded as “binds”.

B3: HIV-1 proximal NFAT site (Example 3) (dsDNA)
DNA 1: GAGGACGCGGAGAAAGAAGTGTTAAGTGTG
DNA 2: CACACTTAACACTTCTTTCTCCGCGTCCTC
B3: in data set [3], the binding result is listed as “binds”.

B4: CREB/ATF site, somatostatin promoter (-60 to -33) (dsDNA)
DNA 1: GGTTCCTCCTTGGCTGACGTCAGAGAGAGA
DNA 2: TCTCTCTCTGACGTCAGCCAAGGAGGAACC
On to B4, for which the binding result in data set [4] is recorded as “no binding”.

B5: HIV-1 LTR proximal ILF motif (-223 to -195) (dsDNA)
DNA 1: GAGGACGCGGAGAAAGAAGTGTTAGTGTG
DNA 2: CACACTAACACTTCTTTCTCCGCGTCCTC
As to B5, the binding result in data set [5] is given as “binds”; in data set [6] it was “binds”; in [7], “no binding”; in data set [8], “binds”.

B6: HIV-1 LTR distal ILF motif (-283 to -256) (dsDNA)
DNA 1: GAAGAGGCCAATGAAGGAGAGAACAACA
DNA 2: TGTTGTTCTCTCCTTCATTGGCCTCTTC
Regarding B6, the binding result in [9] was “binds”; in [10], “binds”; in data set [11] it was “binds”; in data set [12] it was “no binding”; in data set [13], “no binding”.

B7: IL-2 promoter NFAT motif (-285 to -254) (dsDNA)
DNA 1: AATTGGAGGAAAAACTGTTTCATACAGAAGGCGT
DNA 2: ACGCCTTCTGTATGAAACAGTTTTTCCTCCAATT
Consider B7, for which the binding result is “no binding” in data set [14]; “binds” in data set [15]; “no binding” in data set [16]; “binds” in data set [17]; “binds” in [18].
